Reference: the nanobody polyreactivity screen of Harvey et al. (2022)

Assay: yeast display, Sf9 membrane polyspecificity reagent, FACS + sequencing; frameworks hold sequencing errors
Summary of the method: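 Nanobodies came from a synthetic yeast display library in Saccharomyces cerevisiae BJ5465, induced with galactose for 36–48 hours and stained for 1 hour at 4 °C with 10% biotinylated, detergent-solubilized Sf9 membrane reagent. Cells were enriched on streptavidin microbeads and then FACS-sorted, with low and high (top ~1%) gates set on anti-HA fluorescence for expression and streptavidin fluorescence for reagent binding. Each polyreactivity label reflects the gate a clone came from. Genes were amplified by colony PCR, sequenced by MiSeq 2 × 250 and filtered by CDR length.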

Sequence | polyreactivity (PSR sort gate)
QVQLVESGGGLVQAGGSLRLSCAASGSIFGSYAMGWYRQAPGKERELVAAITYSGGSTYYADSVKGRFTISRDNAKNTVYLHMNSLKPEDTAVYYCAADYSFYWAYFDYWGQGTQVTVSS | high polyreactivity
QVQLVESGVGLVQAGGSLRLSCAASGSTFSNNAMGWYIQAPGKERELVAVITGDGGSTYYADSVKGRFTISRDIAKNTVYLQTNSLKPEDTAVYSCNARSSRYSRFRQRFGYWGQVTQVTVSS | low polyreactivity
QVQLVESGGGLVQAGGSLRLSCAASGRTFYGYAMGWYRQAPGKERELVAVITSGVRTNYADSVKGRFTISRDNAKNTVYLQMNSLKPEDTAVYYCAARGTLALRDHYGYWGQGTQVNVSS | high polyreactivity
QVQLVESGGGLVQAGGRLRLSCAASGRTFYSNAMGWYSQAPGKERELVAAITFGGGSTYYADSVKGRFTISRDNAKNTVYLQMNSLKPEDTAVYYCAAEGYKYRFYYWGQGTQVTVSS | low polyreactivity
QVQLVESGGGLVQAGGSLRLSCAASGSNIYHNTMGWYRQAPGKERELITYYADSVKGRFTISRDNAKNTVYLQMNSLKPEDTAVYYCAASPVSRTGPGDYDYWGQGTQVTVSS | low polyreactivity
QVQLVESGGGLVQAGGSLRLSCASSGSTFYNNALGWYRQAPGKERELVAAISNVSTYYADSVKGRFTISRDNAKNTVYLQLISLKPEDTAVYYCAARGLLWYYSWRYYFWGQGTQVTVSS | low polyreactivity
QVQLVESGGGLVQAGGILRLSCAASGFTFGRYAMGRSRQAPGKEREFVAAISYTGTSTYYADSVKGRFTISRDNAKNTVYLQMNSRNPEDTAVYYCNAKWRSHYTQWSYDYWGQCTQVTVSS | high polyreactivity
QVQLVESGGGLVQAGGSLRLSCAASGFTFFSNAMGWYRQAPGKEREFVASISRSGGRTYYADSVKGRFTISRDNAKNTVYLQMNSLKPEDTAVYYCAADVPYYLHNHRYGYWGQGTQVTVSS | high polyreactivity
QVQLVESGGGLVQAGGSLRLSCAASGFTFVTNAMGWYRQAPGKERELVAAISRRGGSTYYADSVKGRFTISRDNAKNTVDLQMNSLKPEDTPVYYCNADRQRRRQFSFSSPYDYWGQGTQVTVSS | high polyreactivity
QVQLEESGGGLVQAGGSLRLSCAASGFTFSLYGMGWYRQAPGKERELVAAIRSGGSTNYADSVKGRFTISRDNAKNTVYLQMNSLKPEDTAVYYCATDIHSVNNNRDKHDYDYWGQGTLVTVSS | low polyreactivity
QVQLVESGGGLVQAGGSLRLICAASGSTFAYYVMGWYRPAPGTEREFVATITGSGGRTYYADSVKGRFTISRDNAKNTVYLQMISLKPEDTAVYYCAAGVYTGQHEYDYWGQGTQVTVSS | low polyreactivity
QVQLVESGGGLVQAGGSLRLSCAASGFTFVRNTMGWYRQAPGKERELVAAISRSGGSTYYADSVKGRFTISRDNAKNTVYLQMYSLKPEDTAVYYCNAYRYVHYDWGQGSQVTVSS | high polyreactivity
QVQLVESGGGFVQAGGSLRLSCAASGRLFFIYAMGWYRQAPGKDRELVAAITGRGGRTYYADSVKGRFTISRDKPKNTVYLEMYSQKPEDTAVYYCAADSRDSYLFYYWGQGTQVTVST | high polyreactivity
QVQLVESGGGLVQAGGSLRLSFAASGSNFYIYAMGWYRQAPGKERELVAAITSGGNTYYVDSVKGRFTISRDNAKNTVYFQMNSLKPEDTAVYYCAAELYDRWSRMDYWGQGTQVTVSS | low polyreactivity
QVQLVESGGGLVQAGGSLRLSCAASGFTFGSYAMGWYRQAPGKEREFVAAISLGGARTYYADSVKGRFTISRDNAKNTVYLQMNSLKPEDTAVYYCNARGIGRSTKWSSRDYWGQGTQVTVSS | high polyreactivity
QVQLVESGGGLVQAGGSLRLSCAASGRIFRFNAMGWYRQAPGKERELVAAITGSGGTTFYADSVKGRFTISRDNAKNTVYLQMNSLKPEDTAVYYCITLGNWRPVYNQPRYEYWGQGTQVTVSS | high polyreactivity
QVQLVESGGGLVQAGGSLRLSCAASGFILDWYTMGWYRHAPGKEREFVAAITSRGGDTYYADSVKGRFTISRDNAKNTVYLQMNSLTPEDTAVYYCNKGFKLWPRYGYDYWGQGTQVTVSS | low polyreactivity
QVQLVESGGGLVQAGGSLRLSCAASGLTFTDYAMGWNRQAPGKERELVAGIWDGGSTYYADSVNGRFTISRDNPKNTVYLLMNSLKPEDTAVYYCAARYAGGFYYWGQGTQVTVSS | high polyreactivity
QVQLVESAGGLVQAGGSLRLSCAASGSTFDLYAMGWYRQAPGKEREFVAAISRSGGSTYYADSVKGRFTISRDNAKNTVYLHMNSLKPEDTAVYYSNARWPPGVSRGGMGYWGQGTQVTVST | high polyreactivity
QVQLVESGGGLVQAGGSLRLSCAASGSTFGGYVMGWYRQAPGKERELVAAISGNGASTTYADSVKGRFTISRDNAKNTVYLQMNSLKPEDTAVYYCDALYRKAHSDYDYWGQGTQVTVSS | low polyreactivity
QVQLVESGGGLVQAGGSLRLSCAASGLIFPLYAMGWYRQAPGKERELVAAISRTGVSTDYADSVKGRFTISRDNAKNTVYLQMNSLKPEDTAVYYCNKVRTPRRRYDYWGQGTQVTVSS | low polyreactivity
QVQLVESGGGLVQAGGSLRLSCDASGRSFYPYSMGWYRQAPGKERELVAAIDWSDGSTYYADSVKGRFTISRDNAKNTFYLQMNSLKPEDTAVYYCSAEDYNYWSYDYWGQGTQVTVSS | low polyreactivity

Sequence | polyreactivity (PSR sort gate)
QVQHVESGGGLVQAGGSLRLSCAASGYTFYIYAMGWYRQAHGKERELVATISSSGGGTYYADSVKGRFTISRDNAKNTVYLQMNSLTPEDTAVYYCNADGWYWQAQGYDYWGQGTQVTVSS | low polyreactivity
QDQHVESGGGLVQARGTLRLSCAASGFTFYHYAMGWSRQAPGTERELVAGISHRGASTYYADSVKGRFTISRDNAKNTVYLQMNSLKPEDTAVYYCNAYRPYRNHALIGDGYWGQGTQVTVSS | high polyreactivity
QVQLVESGGGLVQAGGSLRLSCAASGFIFLGYGMGWYRQAPGKEREFVAGISWSGGSTYYADSVKGRFTISRDNAKNTVYLQMNSLKPEDTAVYYCNAVVFWGGGDYYWGQGTQVTVSS | low polyreactivity
QVQLVESGGGLVQAGGSLRLSCAASGNTFTRNAMGWYRQAPGKERELVAAISYSGGSTYYADSVKGRFTISRDNAKNTVYLQMNSLKPEDTAVYYCATKYYDRFSPYRGDYWGQGTQVTVSS | low polyreactivity
QVQLVESGGGLVQAGGSLRLSCAASGSIITPYAMGWYRQAPGKERELVAAISGRGGSTYYADSVKGRFTISRDNAKNTVYLQMNSLKPEDTAVFFCAAKRSGGQGQGYGYWGQGTQVTVSS | high polyreactivity
QVQLVESGGGLVQAGGSLRLSCAASGSTFYPNAMGWYRQAPGKERELVAAITSGGSTNYADSVKGRFTISRDNAKNTVYLQMNSLKPEDTAVYYCAAVGKYRIRSDYWGQGTQVTVSS | low polyreactivity
HVQHVESGGGLVQAGGSLRLSCADSGNTFSDNAMGLYRQAPGKVRELVAAISTSGGSTYYADSVKGRFTISRDNAKNTVYLQMNSLNPEDTADYYFAAQFTVLWYEYYYWVQGTQVTVSS | high polyreactivity
QLHLVESAGGLVQAGGSLRLSCVYSGLTQPYAMGWYRHAPGKEREWVAGITCRGASTYYADSVKGRFTISRDNAKNTVYLQLNSLKPEDTAVYYCAARSTIQRRGYYGYRVGLSEYGYWGQGTQVTVSS | low polyreactivity
QVQLVESGGGLVQAGGSLRLSCAASGRTFYVYAMGWYRQAPGNERELVATISRSGGGTYYADSVKGRFTISRDNAKNTVYLQMNSLTPEDTAVYYCAAKPYRRDYGYWGQGTQVTVSS | high polyreactivity
QVQLVESGGGLVQAGGSLRLSCAASGRIIDLNAMGWYRQAPGKERQLVAAISYSGGRTFYADSVKGRFTISRDNAKNTVYLQMNSLKPEDTAVYYCNARYGKPAYQYGMDYWGQGTQVTVSS | low polyreactivity
QVHLVESGGGLVQAGGSLRLSCAASGRIFFTNAMGWYRQAPGKERELVATISSSDGSTYYADSVKGRFTISRDNAKYTVYLQMNSLKPEDTAVYYCAALYSFRGSRQYTYKYYYWGLGTQVTVSS | high polyreactivity
QVQLVESGGGLVQAGGSLRLSCAASGSIFAVYAMGWYRQAPGKERELVAVITRSGGSTYYADSVKGRFTISRDNAKNTVYLQMNSLKPEDTAVYYCAARRSYLLRYDYWGQGTQVTVSS | high polyreactivity
QVQLVESGGGLGQAGGSLRLRCAASGSTFQYYAMGWYRQAPGKERELVAAITHSGTRTYYADSVKGRFTISRDNAKNTVYLQMNSLKPVDTAVYYCAARGYGKYDYWGQGTQVTVSS | high polyreactivity
QVQLVESGGVLVQAGGSLRLSCAASGRTSKFYAMGWYRPAPGKERELVARITYSGGSTTYADSVKGRFTISRDNAKNTVYLQMNSLKPDDTAVYYFAITSQWLRRYYYWGQGTQVTVSS | high polyreactivity
QVQLVESGGGLVQAGGSLRLSCAASGLIFRGYAMGWYRQAPGKERELVAAISKSGGSTYYADSVKGRFTISRDNAKNTVYLQMNSLKPEDTAVYYCNARKHGSRTGGYYWGQGTQVTVSS | high polyreactivity
QVQLVESGGGLVQAGGSLRLSCAASGITFYIKAMGWYRQAPGKERELVAVIDSRGSSTFYADSVKGRFTISRDNAKNTVYLQMNSLKPEDTAVYYCAVEGYPGRYRDPGDLYYYWGQGTQVTLSS | low polyreactivity
QVQLVESGGGLVQEGGSLRLSCAASGSTFYNYAMGLYRQAPGKERELVAAITSSGGSTYYADSVKGRFTISRDYAKNTVYLQMNSLKPEDTAVYYCNADDGYGQVHSISNYEMDYWGQGTQVTVSS | low polyreactivity
QVQLVESGGGLVQAGGSLRLSCAASGFIFGINAMGWYRQAPWKERELVAAISTGDRTNYADSVKGRFTISRDNAKNTVYLQMNSLKPEDTAVYYCAKDWRRNRPYEWTYDYWGQGTQVTVSS | low polyreactivity
QVQLVESGGGLVQAGGSLRLSCAASGRIFRSYAMGWYRQAPGKERELVAAITWSGGSTYYADSVKGRFTISRDNAKNTVYLQMDSLKPEDTAVYYCARVVTKKYSHTGYEYWGQGTQVTVSS | high polyreactivity
QVQLLESGGRLVQAGGSLRLSCAASGSTYNQYDMGWYRQAPGKERELVAAISTNGGRTYYADSVKGRFTISRDNAKNTVYLLMNSLKPEYTAVYYCNRAGRGRWSNMDHWGQGTQVTVSS | high polyreactivity
QVQLVESGGGLVQAGASLRLSCAASGSTFKYYTMGWYRQAPGKERELVAAISFSGARTYYADSVKGRFTISRDNAKNTVYLQMNSLKPEDTAVYYCAKDRQYYYWGQGTQVTVSS | high polyreactivity
